These results are taken from article PMC4191397.

The target of data set [1] is T1, NS3h (NS3 helicase domain) (Dengue virus serotype 2 (infectious …, UniProt O09234 1646-2093)). Kind of data set: competition.
Data set [2] concerns the target T1, NS3h (NS3 helicase domain). Kind of data set: competition. The source holds these as a separate data set.
Data set [3] concerns the target T1, NS3h (NS3 helicase domain). The data set can be described thus: fluorescence titration.
Data set [4] has as its target T1, NS3h (NS3 helicase domain). Kind of data set: EMSA. (In general: In EMSA bound probe runs differently from free probe, usually more slowly.)
In data set [5] the target is T1, NS3h (NS3 helicase domain). Kind of data set: competition. This is another data set of the same source.
The target of data set [6] is T1, NS3h (NS3 helicase domain). Kind of data set: competition. The source holds these as a separate data set.

For the molecule UUUUUUUUUUUU (ssRNA) [(U)12], the binding result in data set [1] is “no binding”.
For AGUUGAGUUG (ssRNA) [R10], the Ka in data set [2] was 1.69 ± 0.04 10^6 M-1.
Still for that read-out and setting: the value for AGUUGAGUUGAGUUGAGU (ssRNA) [R18] was 11.5 ± 0.3 10^6 M-1.
As to AGUUGAGUUGAG (ssRNA) [F-p-R12], in data set [3], the Ka was 20.8 ± 0.5 10^6 M-1.
AGTTGAGTTGAGTTGAGTTG (ssDNA) [F-p-D20]: the binding result in data set [4] is “no binding”.
For AGUUGAGUUGAGUUG (ssRNA) [R15], in data set [2], the Ka is 7.4 ± 0.2 10^6 M-1.
Take AGUUGAGUUGAGUUGAGUUG (ssRNA) [R20]: the Ka is 0.6 ± 0.1 10^6 M-1 in data set [5] and 16.7 ± 0.7 10^6 M-1 in data set [6].
Turning to AGUUGAGUUGAG (ssRNA) [R12], the Ka in data set [2] was 2.64 ± 0.06 10^6 M-1.
As for AGUUGAGUUG (ssRNA) [F-p-R10], in data set [3], the Ka was 11.3 ± 0.1 10^6 M-1.
